# Data taken from paper PMC2819980.
# B1: FrbG (Streptomyces rubellomurinus) (protein)
# chain: MTHYATVICGGGPAGVSAVVAAAVQGRLEEFLDRGVLLVEATGRAGSGSIPHYGIRANSLGSAFLECLDGPAGSGLLAGLADSAEARELRGWADEYPPLPVVGAFLTLVGERVVDALRRHPRCDALLGHRVVEVRTGPERATVLLSGPDGELSHTGDRVLLTMGGRERTELAPDALAALVERRPGLRVLSSGEVITDPSWHPDAASPHRALGSIAVLGGAHSAWAVAAHLARLARAGWFAGPVEVTVVERRLPPIFYFSAAEARAEGYRWDEADVCGPSGRVHRFGGLRGPARELARQVMGLAAEKAPDGFGQVVLDGPWTAEALEAAVGDADLVITALGYDARLPRLLGADGRELELARPRGAVDTGRDGLPGLAAGGRAERLVMYGLGAGLVPSEETGGEPGYRGRLDGVWVYQHDIGAVILRALLANDRTEDGR
# Substrate: NCCCP(=O)(O)OP(=O)(O)OC[C@H]1O[C@@H](n2ccc(N)nc2=O)[C@H](O)[C@@H]1O
# Assay: steady-state kinetics
# Assay type: biochemical, Streptomyces rubellomurinus
protein,measurement,value
B1,Km,15.1 ± 1.5 µM
same,kcat,0.0987 ± 0.00633 s⁻¹
same,kcat/Km,6520 M⁻¹ s⁻¹
